Experiments:
human α9 integrin [1] = biological target: T1, human α9 integrin (human, UniProt Q13797 30-1035); experiment: cell-based or functional assay
T1 sequence: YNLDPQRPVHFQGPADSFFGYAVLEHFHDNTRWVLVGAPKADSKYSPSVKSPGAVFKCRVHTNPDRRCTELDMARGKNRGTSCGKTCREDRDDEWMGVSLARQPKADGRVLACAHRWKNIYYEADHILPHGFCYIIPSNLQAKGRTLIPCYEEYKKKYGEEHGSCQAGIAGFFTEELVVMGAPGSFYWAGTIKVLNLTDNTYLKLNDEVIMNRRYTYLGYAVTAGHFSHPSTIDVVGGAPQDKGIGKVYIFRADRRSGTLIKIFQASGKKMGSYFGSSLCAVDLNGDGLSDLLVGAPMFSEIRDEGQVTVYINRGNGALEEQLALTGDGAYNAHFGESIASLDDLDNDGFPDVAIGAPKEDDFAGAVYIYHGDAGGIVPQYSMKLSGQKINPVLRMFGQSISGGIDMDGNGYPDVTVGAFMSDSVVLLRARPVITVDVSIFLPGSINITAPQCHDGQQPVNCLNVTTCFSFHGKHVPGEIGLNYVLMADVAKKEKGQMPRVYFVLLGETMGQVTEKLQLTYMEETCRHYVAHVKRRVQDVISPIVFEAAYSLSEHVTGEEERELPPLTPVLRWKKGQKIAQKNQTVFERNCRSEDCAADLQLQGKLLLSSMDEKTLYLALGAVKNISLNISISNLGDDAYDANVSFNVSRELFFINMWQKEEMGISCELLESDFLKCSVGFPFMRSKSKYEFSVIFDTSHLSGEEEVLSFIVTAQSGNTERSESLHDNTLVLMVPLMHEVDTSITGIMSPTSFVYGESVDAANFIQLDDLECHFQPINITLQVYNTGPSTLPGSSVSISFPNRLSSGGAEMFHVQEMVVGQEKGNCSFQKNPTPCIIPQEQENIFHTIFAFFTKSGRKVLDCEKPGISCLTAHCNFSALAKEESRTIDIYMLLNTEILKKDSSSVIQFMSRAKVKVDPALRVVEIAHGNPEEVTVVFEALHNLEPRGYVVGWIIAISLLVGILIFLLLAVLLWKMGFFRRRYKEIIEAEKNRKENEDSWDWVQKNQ

human α4 integrin = biological target: T2, human α4 integrin (human, UniProt P13612 34-1032); experiment: hybridoma screening on transfected cells
T2 construct: whole, on cells; Expressed on CHO K1 cells and used as the negative screen for hybridomas; also called CHO K1 cells expressing human α4 integrin
T2 sequence (looked up): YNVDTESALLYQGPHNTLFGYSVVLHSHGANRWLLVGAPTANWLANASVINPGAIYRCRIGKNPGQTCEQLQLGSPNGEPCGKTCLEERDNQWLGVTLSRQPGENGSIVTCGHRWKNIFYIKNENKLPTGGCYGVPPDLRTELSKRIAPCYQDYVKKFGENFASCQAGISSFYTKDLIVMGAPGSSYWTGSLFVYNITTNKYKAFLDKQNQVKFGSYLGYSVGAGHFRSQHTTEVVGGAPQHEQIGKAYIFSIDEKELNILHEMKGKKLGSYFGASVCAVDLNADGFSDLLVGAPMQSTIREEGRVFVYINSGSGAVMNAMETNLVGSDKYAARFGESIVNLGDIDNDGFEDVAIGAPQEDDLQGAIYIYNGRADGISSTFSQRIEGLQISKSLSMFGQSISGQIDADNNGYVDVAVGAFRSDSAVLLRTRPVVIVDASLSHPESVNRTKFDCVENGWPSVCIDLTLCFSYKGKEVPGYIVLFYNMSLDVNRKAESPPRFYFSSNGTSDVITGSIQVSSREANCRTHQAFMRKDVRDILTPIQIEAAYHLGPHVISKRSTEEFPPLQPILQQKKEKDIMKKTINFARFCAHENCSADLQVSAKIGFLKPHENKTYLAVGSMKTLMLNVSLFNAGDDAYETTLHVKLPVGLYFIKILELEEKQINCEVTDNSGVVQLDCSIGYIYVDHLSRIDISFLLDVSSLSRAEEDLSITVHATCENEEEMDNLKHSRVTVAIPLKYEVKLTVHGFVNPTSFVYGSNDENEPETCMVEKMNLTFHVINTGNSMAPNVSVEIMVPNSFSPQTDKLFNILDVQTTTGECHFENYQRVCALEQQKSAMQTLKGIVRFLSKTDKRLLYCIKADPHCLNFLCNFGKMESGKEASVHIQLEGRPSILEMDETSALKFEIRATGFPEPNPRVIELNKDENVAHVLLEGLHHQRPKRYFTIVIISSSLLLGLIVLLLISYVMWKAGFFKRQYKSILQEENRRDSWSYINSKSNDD
Protocol: Mouse monoclonal antibodies against human α9 integrin were prepared according to the subtractive immunization method (by Williams C. V., et al., 1992, Biotechniques 12:842-847). Briefly, three Balb/c mice were injected intraperitoneally with NIH-3T3 cells expressing human α9 integrin (Human α9/NIH-3T3 cells) at 3×10⁶ per mouse. At one and two weeks after the injection, the mice were injected intraperitoneally with 3×10⁶ cells/mouse of Human α9/NIH-3T3 cells, followed by another intravenous injection of the same cells at 2×10⁶ cell/mouse one week later. Hybridomas were prepared by the methods well known in the art (see, for example, Harlow et al., Antibodies: A Laboratory Manual, (Cold Spring Harbor Laboratory Press, 2nd ed. 1988); Hammerling, et al., in: Monoclonal Antibodies and T-Cell Hybridomas, pp. 563-681 (Elsevier, N.Y., 1981). Hybridoma clones producing monoclonal antibodies that were immunospecifically reactive with Human α9/CHO-K1 cells expressing human α9 integrin and with human melanoma cells endogenously expressing human α9 integrin but not with CHO K1 cells expressing human α4 integrin were established and a hybridoma clone (i.e., K33N) producing monoclonal antibody immunospecifically recognizing human α9 integrin were isolated.

human α9 integrin [2] = biological target: T1, human α9 integrin; experiment: FACS binding assay on CHO/huα9 cells
Protocol: (§1) Mouse K33N antibody was tested at various concentrations, starting at 1.67 μg/ml and serial 3-fold dilutions, for binding to CHO/huα9 cells. Geometric mean channel fluorescence values (MCF; Y-axis) are plotted at each antibody concentration tested (X-axis) in the figure. EC₅₀ values were calculated using GraphPad Prism (GraphPad Software, San Diego, Calif.).
as §1, with “Each” for “Mouse K33N”, “5” for “1.67”
Binding of mouse, chimeric and humanized K33N antibodies to human α9 integrin was examined in a FACS binding assay with CHO/huα9 cells. Approximately 5×10⁵ CHO/huα9 cells/test were washed with FACS Binding Buffer (PBS containing 0.5% BSA and 0.05% NaN₃) and suspended in 200 μl of FACS Binding Buffer containing various amounts of test antibody. After 30 min on ice, the cells were washed with FACS Binding Buffer. The cells stained with mouse K33N were then suspended in 100 μl of 1/200-diluted FITC-labeled goat anti-mouse IgG polyclonal antibody (SouthernBiotech) in FACS Binding Buffer. The cells stained with chimeric or humanized K33N were suspended in 100 μl of 1/200-diluted FITC-labeled goat anti-human IgG polyclonal antibody (SouthernBiotech) in FACS Binding Buffer. After 30 min on ice, the cells were washed with FACS Binding Buffer, suspended in 200 μl of FACS Binding Buffer, and analyzed using a FACScan flow cytometer (BD Biosciences, Franklin Lakes, N.J.). […] Between ChK33N and HuK33N antibodies, the binding pattern was very similar to each other (FIG. 22).

Work on “mouse anti human α9 integrin antibody Y9A2” yielded an IC50 of cell adhesion inhibition (G-361 cells to hTNC (AEIDGIEL)-BSA) (human α9 integrin [1]) of 0.053 µg/mL.

B1: mouse K33N monoclonal antibody (hybridoma FERM BP-10830) (antibody, mouse IgG1, V domains shown)
VH: QVQLQQSGPELVKPGASVKISCKASGYSFTSYYMNWVKKRPGQGLEWIGWIFPGSGNTKYNEKFKGKATLTADTSSSTAYMQVSSLTSEDSAVYFCARSWVSYERGYYFDYWGQGTSLTVSS
VL: DIQMTQSPASLAASVGETVTLTCRASENIYYSLAWYQQKQGKSPQLLIYNANSLEDGVPSRFSGSGSGTQYSMKINSMQPEDTATYFCKQAYDVPYTFGGGTKLEIK
notes: also called mouse K33N antibody
With B1 the binding result (human α4 integrin) was “no binding”, the EC50 (human α9 integrin [2]) was 0.104 µg/mL and the “IC50 of cell adhesion inhibition (G-361 cells to hTNC (AEIDGIEL)-BSA)” value (from here on “IC50 of cell adhesion inhibition”) (human α9 integrin [1]) was 0.075 µg/mL.

B2: chimeric K33N IgG1/κ antibody (antibody, V domains shown)
VH: B1 VH
VL: B1 VL
notes: Mouse K33N variable regions on human gamma-1 and kappa constant regions (vector pChK33N); also called ChK33N
B2 was tested, and the EC50 (human α9 integrin [2]) was 0.143 µg/mL and the “IC50 of cell adhesion inhibition” value (human α9 integrin [1]) was 0.09 µg/mL.

B3: humanized K33N IgG1/κ antibody (antibody, V domains shown)
VH: QVQLVQSGAEVKKPGASVKVSCKASGYSFTSYYMNWVRQAPGQRLEWIGWIFPGSGNTKYNEKFKGKATLTADTSASTAYMELSSLRSEDTAVYYCARSWVSYERGYYFDYWGQGTLVTVSS
VL: DIQMTQSPSSLSASVGDRVTITCRASENIYYSLAWYQQKPGKAPKLLIYNANSLEDGVPSRFSGSGSGTQYTLTISSLQPEDFATYYCKQAYDVPYTFGQGTKVEIKR
notes: also called HuK33N
In the case of B3, the EC50 (human α9 integrin [2]) is reported as 0.151 µg/mL and the “IC50 of cell adhesion inhibition” value (human α9 integrin [1]) is reported as 0.084 µg/mL.

Source: US20110300139A1 (GENE TECHNO SCIENCE, published 2011)
